From US20210155689A1 (SHANGHAI PHARMAEXPLORER, published 2021)
Substitutions are numbered along the chain they refer to.

B1: 556F6B8 mouse-human chimeric antibody (antibody, V domains shown)
VH: RVQLKQSGPGLVQPSQSLSITCTVSGFSLIKYGVHWVRQSPGEGLEWLGVIWRGGITDYNAAFMSRLSITKDNSKSQVFFKMNSLQADDTAIYYCAKWDGPLAMDYWGQGTSVTVSS
VL: DIVMTQSHKFLSTSVGDRVSITCKASQDVGTTVAWYQQKPGQSPKLLIYWASTRHTGVPDRFTGSGSGTDFTLTISNVQSEDLADYFCQQYSSYPYTFGGGTKLEIK
notes: also called mAb123-556F6B8; 556F8B8
B2: 556F6B8 (mouse antibody purified from hybridoma) (antibody, V domains shown)
VH: B1 VH
VL: B1 VL
notes: also called mAb123-556F6B8
B3: 556F6B8 (LAG-3 mouse-human chimeric antibody) (antibody, V domains shown)
VH: B1 VH
VL: B1 VL
notes: also called 556F8B8
B4: 405B8H3 (mouse antibody purified from hybridoma) (antibody, V domains shown)
VH: QVQLQQSGAELVRPGASVTLSCKASGYTFTDYEMHWVKQTPVHGLEWIGATDPETGNSAYNQKFKGKAIMTADKSSSTAYMELRSLTSEDSAVYYCISTGWNDWGQGTSLTVSS
VL: DIKMTQSPSSMYASLGERVTITCKASQDINSYLSWFQQKPGKSPKTLIYRADRLLDGVPSRFSGSGSGQDYSLTISSLEYGDMGIYYCLQYDEFPYTFGGGTKLEIK
notes: also called mAb103-405B8H3; 405B81-13
B5: 105F1E10 mouse-human chimeric antibody (antibody, V domains shown)
VH: EVQLQQSGPELVKPGASVKMSCRASGYTFTDFKMHWMKQSHGKSLEWIGYIAPNNGGTAYNQKFRGKATLTVNESSNTAYMELRSLTSEDSAVYYCVDWDDVDYWGQGTTLTVSS
VL: B4 VL with P40S, D52N, L55V, G81E, D92V, Y96L, G100A, I106L
notes: also called mAb009-105F1E10
B6: 405B8H3 (LAG-3 mouse-human chimeric antibody) (antibody, V domains shown)
VH: B4 VH
VL: B4 VL
notes: also called mouse-human chimeric antibody 405B8H3
B7: 105F1E10 (LAG-3 mouse-human chimeric antibody) (antibody, V domains shown)
VH: B5 VH
VL: B4 VL with P40S, D52N, L55V, G81E, D92V, Y96L, G100A, I106L
B8: 405B8H3 mouse-human chimeric antibody (antibody, V domains shown)
VH: B4 VH
VL: B4 VL
notes: also called mAb103-405B8H3
B9: 105F1E10 (mouse antibody purified from hybridoma) (antibody, V domains shown)
VH: B5 VH
VL: B4 VL with P40S, D52N, L55V, G81E, D92V, Y96L, G100A, I106L
notes: also called mAb009-105F1E10
B10: 409D4E10 (mouse antibody purified from hybridoma) (antibody, V domains shown)
VH: B4 VH with Y27N, G56D, S58T, M70L, A72T, S98T, T99S
VL: B4 VL with D52N, G81E, D92N
notes: also called mAb112-409D4E10
B11: 409D4E10 (LAG-3 mouse-human chimeric antibody) (antibody, V domains shown)
VH: B4 VH with Y27N, G56D, S58T, M70L, A72T, S98T, T99S
VL: B4 VL with D52N, G81E, D92N
B12: 409B11E12 (mouse antibody purified from hybridoma) (antibody, V domains shown)
VH: B4 VH with P41T, G56S, N57Y, M70L, S98A
VL: B4 VL with I2L, D52N, G81E
notes: also called mAb104-409B11E12
B13: 409B11E12 (LAG-3 mouse-human chimeric antibody) (antibody, V domains shown)
VH: B4 VH with P41T, G56S, N57Y, M70L, S98A
VL: B4 VL with I2L, D52N, G81E
B14: 409B11E12 mouse-human chimeric antibody (antibody, V domains shown)
VH: B4 VH with P41T, G56S, N57Y, M70L, S98A
VL: B4 VL with I2L, D52N, G81E
notes: also called mAb104-409B11E12
B15: 409D4E10 mouse-human chimeric antibody (antibody, V domains shown)
VH: B4 VH with Y27N, G56D, S58T, M70L, A72T, S98T, T99S
VL: B4 VL with D52N, G81E, D92N
notes: also called mAb112-409D4E10

Columns and labels:
[1] = molecular target: T1, human LAG-3 on cells (HEK293-hLAG-3 stable cell line) (human, UniProt P18627 23-525); test: FACS, HEK293-hLAG-3, antibody 200.000 nM
T1 sequence: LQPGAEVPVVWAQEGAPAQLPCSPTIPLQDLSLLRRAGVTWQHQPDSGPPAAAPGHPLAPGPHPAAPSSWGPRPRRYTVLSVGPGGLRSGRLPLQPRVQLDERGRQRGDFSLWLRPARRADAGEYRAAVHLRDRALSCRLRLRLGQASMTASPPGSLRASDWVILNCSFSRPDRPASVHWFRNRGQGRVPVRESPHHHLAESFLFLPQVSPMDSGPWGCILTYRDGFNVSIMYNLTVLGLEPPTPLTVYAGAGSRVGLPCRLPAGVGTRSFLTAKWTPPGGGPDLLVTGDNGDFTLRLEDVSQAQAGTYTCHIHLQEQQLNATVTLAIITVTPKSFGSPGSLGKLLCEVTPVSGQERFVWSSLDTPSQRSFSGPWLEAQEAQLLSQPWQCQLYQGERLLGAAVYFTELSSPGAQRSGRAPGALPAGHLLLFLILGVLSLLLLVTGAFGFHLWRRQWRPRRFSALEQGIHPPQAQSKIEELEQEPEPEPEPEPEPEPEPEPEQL
Excerpt: The pIRES plasmid with the monkey-derived full-length gene was transfected into the HEK293 cell line to construct a HEK293 stable cell line containing monkey LAG-3 (herein referred to as HEK293-cLAG-3 stable cell line). The HEK293-hLAG-3 stable cell line and HEK293-cLAG-3 stable cell line were expanded in a T-75 cell culture flask to a 90% confluence. The medium was aspirated, and the cells were washed with HBSS (Hanks' Balanced Salt Solution) 1-2 times, then treated with a enzyme-free cell dissociation fluid (Versene solution: Life technology) and the cells were collected. The cells were washed with HBSS buffer for 1-2 times. After counted, the cells were diluted with HBSS to 1-2×10⁶ cells per ml, added with 1% goat serum blocking solution, incubated on ice for 20-30 minutes, and then washed with HBSS for 2 times by centrifugation. The collected cells were suspended in the FACS buffer (HBSS+1% BSA) to 2×10⁶ cells/ml, added as 100 microliters per well to a 96-well FACS reaction plate, added with 100 microliters per well of the antibody sample to be tested, incubated on ice for 1-2 hours. The plate was washed twice with the FACS buffer by centrifugation, added with 100 microliters of fluorescent (Alexa 488)-labeled secondary antibodies per well, and incubated on ice for 0.5-1.0 hours. The plate was washed 2-3 times with FACS buffer by centrifugation, added with 100 μl fixative solution (4% Paraformaldehyde) per well to suspend the cells. 5-10 minutes later, it was washed 1-2 times with FACS buffer by centrifugation. The cells were suspended with 100 microliters of FACS buffer, FACS (FACSCalibur, BD) was used for detection and the results were analyzed.

[2] = molecular target: T2, human LAG-3 protein with hFc tag (hLAG-3-hFc protein) (human, UniProt P18627 23-450); test: FACS, blocks LAG-3-hFc binding to MHC II on Raji; 7.407 nM
T2 construct: also called immunogen 1; LAG-3 extracellular domain protein; not shown: human IgG Fc fragment (hFc) of the pCpC vector
T2 sequence: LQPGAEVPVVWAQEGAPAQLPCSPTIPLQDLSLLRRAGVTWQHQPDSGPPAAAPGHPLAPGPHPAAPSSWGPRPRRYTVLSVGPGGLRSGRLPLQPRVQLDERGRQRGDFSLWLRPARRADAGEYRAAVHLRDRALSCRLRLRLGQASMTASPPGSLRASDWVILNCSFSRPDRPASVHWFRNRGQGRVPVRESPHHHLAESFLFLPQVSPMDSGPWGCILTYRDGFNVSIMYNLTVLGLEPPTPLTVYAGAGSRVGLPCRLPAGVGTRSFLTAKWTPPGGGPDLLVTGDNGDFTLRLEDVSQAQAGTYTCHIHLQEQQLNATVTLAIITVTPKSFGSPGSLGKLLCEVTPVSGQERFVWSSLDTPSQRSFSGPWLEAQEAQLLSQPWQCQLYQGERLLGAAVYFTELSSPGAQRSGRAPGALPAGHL
Protocol: The FACS reaction plate incubating the Raji cells was centrifuged to discard the supernatant. The above mixture was added as 100 μl per well to Raji cells and incubated on ice for 1-2 hours. The plate was washed twice with blocking solution (PBS, 2% fetal bovine serum) by centrifugation, added with 100 microliters of fluorescent (Alexa 488)-labeled secondary antibodies per well, and incubated on ice for 1.0 hours. The plate was washed 2-3 times by centrifugation with blocking solution (PBS, 2% fetal bovine serum), added with 100 microliters of PBS per well to suspend cells, and detected using FACS (FACS Calibur, BD) and the results were analyzed. Wherein, the IgG control was murine IgG, and the data in the table is the inhibition rate (%).

[3] = molecular target: T2, human LAG-3 protein with hFc tag …; test: ELISA, hLAG-3-hFc coated; 0.0667 nM
Protocol: The plate was sealed with plastic film and incubated overnight at 4° C. The plate was washed 2 times with the plate washing solution (PBS+0.01% Tween20) on the next day, and added with the blocking solution (PBS+0.01% Tween20+1% BSA) and blocked at room temperature for 1-2 hours. The blocking solution was poured out, and the plate was added with 50-100 μl of the antibody sample to be tested to each well, incubated at 37° C. for 1-2 hours, and washed 2-3 times with a plate washing solution (PBS+0.01% Tween20). HRP (horseradish peroxidase) labeled secondary antibody was added, and the plate was incubated at 37° C. for 1-2 hours, and washed 2-3 times with a plate washing solution (PBS+0.01% Tween20). 100 μl of TMB substrate was added to each well. After incubated at room temperature for 15-30 minutes, the plate was added with 100 μl of stop solution (1.0N HCl) to each well.

Binder	Mean fluorescence intensity [1]	Inhibition rate (%) [2] [%]	OD450 [3] [OD450]
B1	125	–	–
B2	–	93.3	–
B3	–	–	1.94
B4	–	87.3	–
B5	175	–	–
B6	–	–	2.25
B7	–	–	1.29
B8	169	–	–
B9	–	81	–
B10	–	93	–
B11	–	–	3.1
B12	–	93.4	–
B13	–	–	2.16
B14	171	–	–
B15	151	–	–
